Experiments:
GLI2 (aa 84-355) = GLI2 (aa 84-355) (human, UniProt P10070-1 84-355); experiment: EMSA; Roche DIG gel shift kit binding buffer (1X from 5X; composition, salt and pH not given), 155 fmol probe, 20 pmol competitor, 4 C 20 min, 5% TBE gel; conditions: protein: recombinant; tags: 6xHis; label: digoxigenin (or 32P); blunt
GLI1 (aa 211-1106) = GLI1 (aa 211-1106) (human, UniProt P08151 211-1106); experiment: as above; conditions: protein: recombinant; label: digoxigenin (or 32P); blunt
GLI1 (aa 211-1106), sequence (P08151 211-1106): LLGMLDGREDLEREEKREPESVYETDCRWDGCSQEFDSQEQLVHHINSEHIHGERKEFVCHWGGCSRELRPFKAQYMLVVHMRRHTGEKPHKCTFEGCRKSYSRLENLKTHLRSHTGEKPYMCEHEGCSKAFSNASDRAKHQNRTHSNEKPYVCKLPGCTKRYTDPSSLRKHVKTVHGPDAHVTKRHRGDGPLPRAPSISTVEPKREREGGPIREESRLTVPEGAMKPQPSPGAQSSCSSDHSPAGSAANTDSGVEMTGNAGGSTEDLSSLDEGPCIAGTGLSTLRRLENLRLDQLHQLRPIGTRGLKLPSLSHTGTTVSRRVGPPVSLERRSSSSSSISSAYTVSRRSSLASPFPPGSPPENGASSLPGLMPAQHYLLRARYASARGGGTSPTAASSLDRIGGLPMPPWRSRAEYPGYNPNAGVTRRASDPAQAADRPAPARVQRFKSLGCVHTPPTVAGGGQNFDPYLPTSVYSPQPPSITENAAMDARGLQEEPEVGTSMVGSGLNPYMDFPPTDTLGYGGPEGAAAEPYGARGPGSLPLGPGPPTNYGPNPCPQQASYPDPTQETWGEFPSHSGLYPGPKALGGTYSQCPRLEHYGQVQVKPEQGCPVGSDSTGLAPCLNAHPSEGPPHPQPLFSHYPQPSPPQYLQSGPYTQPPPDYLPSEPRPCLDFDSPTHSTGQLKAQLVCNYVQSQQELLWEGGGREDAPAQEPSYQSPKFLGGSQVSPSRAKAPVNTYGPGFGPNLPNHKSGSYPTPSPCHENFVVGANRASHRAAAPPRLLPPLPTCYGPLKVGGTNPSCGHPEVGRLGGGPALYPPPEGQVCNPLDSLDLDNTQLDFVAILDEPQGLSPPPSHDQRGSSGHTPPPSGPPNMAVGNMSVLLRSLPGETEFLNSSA

GLI2 (aa 84-355), sequence (P10070 412-683): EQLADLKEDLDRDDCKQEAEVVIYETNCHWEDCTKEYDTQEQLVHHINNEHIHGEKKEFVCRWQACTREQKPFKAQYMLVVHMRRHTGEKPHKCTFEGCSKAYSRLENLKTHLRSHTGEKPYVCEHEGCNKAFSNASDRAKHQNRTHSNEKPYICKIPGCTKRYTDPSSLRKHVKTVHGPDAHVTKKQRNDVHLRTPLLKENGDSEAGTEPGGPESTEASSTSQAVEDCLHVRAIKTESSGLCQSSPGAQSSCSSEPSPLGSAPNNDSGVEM

| Binder | binding result (GLI2 (aa 84-355)) | binding result (GLI1 (aa 211-1106)) |
| --- | --- | --- |
| GBS #1 (dsDNA) DNA 1: CTCTGGCTCAGACCACCCTGCCTGCCCTT DNA 2: AAGGGCAGGCAGGGTGGTCTGAGCCAGAG | binds | binds |
| GBS #2 (dsDNA) DNA 1: GGCGGCGACTTGGGTGGGCCGAGGAGGCA DNA 2: TGCCTCCTCGGCCCACCCAAGTCGCCGCC | binds | binds |
| GBS #5 (dsDNA) DNA 1: AAGGTCGAGTTGGGAGGTCTTGGATGCGG DNA 2: CCGCATCCAAGACCTCCCAACTCGACCTT | binds | binds |
| GBS #6 (dsDNA) DNA 1: TCTACACACAGACCACACAGGCAAAGCTC DNA 2: GAGCTTTGCCTGTGTGGTCTGTGTGTAGA | binds | binds |
| GBS #3 (dsDNA) DNA 1: AGGGGAGATATGGGTGGGCTGTGGAACGC DNA 2: GCGTTCCACAGCCCACCCATATCTCCCCT | binds | binds |
| GBS #4 (dsDNA) DNA 1: AGCATCCCGGGATCACCCACCGCGCCGGC DNA 2: GCCGGCGCGGTGGGTGATCCCGGGATGCT | binds | binds |

Source: article PMC6570425, “Regulation of GLI1 by cis DNA elements and epigenetic marks”
